± gives the uncertainty stated by the source.
Assay: self-splicing fitness, log relative to wild type (ln ratio); higher = more splicing; Tetrahymena group I intron in knt gene, E. coli kanamycin selection, DiMSum; sequences stand for … in CUCUCU…GGAGGGAAAAGUUAUCAGGCAUGCACCUGGUAGCUAGUCUUUAAACCAAUAGAUUGCAUCGGUUUAAAAGGCAAGACCGUCAAAUUGCGGGAAAGGGGUCAACAGCCGUUCAGUACCAAGUCUCAGGGGAAACUUUGAGAUGGCCUUGCAAAGGGUAUGGUAAUAAGCUGACGGACAUGGUCCUAACCACGCAGCCAAGUCCUAAGUCAACAGAUCUUCUGUUGAUAUGGAUGCAGUUCACAGACUAAAUGUCGGUCGGGGAAGAUGUAUUCUUCUCAUAAGAUAUAGUCGGACCUCUCCUUAAUGGGAGCUAGCGGAUGAAGUGAUGCAACACUGGAGCCGCUGGGAACUAAUUUGUAUGCGAAAGUAUAUUGAUUAGUUUUGGAGUACUCGUGGUCG
Method in brief: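 The eight P1ex-region nucleotides of an intron in the knt kanamycin-resistance gene on pET-22b(+) were all randomised and the library put into E. coli BL21(DE3). Six replicate transformations were grown overnight at 37°C or 30°C on LB agar with or without 25 μg/mL kanamycin, together with 100 μg/mL carbenicillin, 50 μM IPTG and 0.2% rhamnose. Colonies were pooled and amplicon-sequenced on an Illumina HiSeq 2500. Fitness from DiMSum is the error-weighted combination of wild-type-normalised replicate fold changes, kanamycin over none.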

| Sequence | self-splicing fitness (ln) (30 °C) | self-splicing fitness (ln) (37 °C) |
| --- | --- | --- |
| CGUAAGCAAUAUUACGGUCA | -2.2 ± 0.15 | -0.467 ± 0.12 |
| CGUAAGCAAUAUUACGUAGC | -4.38 ± 0.36 | -1.62 ± 0.26 |
| CGUAAGCAAUAUUACGUAUU |  | -0.991 ± 0.15 |
| CGUAAGCAAUAUUACGUCCG | -0.78 ± 0.059 | -0.649 ± 0.08 |
| CGUAAGCAAUAUUACGUCCU | -1.88 ± 0.15 | -0.604 ± 0.17 |
| CGUAAGCAAUAUUACGUCGG | -1.2 ± 0.08 | -0.133 ± 0.1 |
| CGUAAGCAAUAUUACGUCUC | -3.77 ± 0.28 | -1.95 ± 0.17 |
| CGUAAGCAAUAUUACGUGUC | -1.85 ± 0.22 | -3.01 ± 0.28 |
| CGUCAGCAAUAUUACGACCA | -0.734 ± 0.11 | -0.297 ± 0.13 |
| CGUCAGCAAUAUUACGACCC | -0.525 ± 0.18 | 0.0394 ± 0.17 |
| CGUCAGCAAUAUUACGAGCG | -3.52 ± 0.15 | -1.04 ± 0.15 |
| CGUCAGCAAUAUUACGAGGU | -3.81 ± 0.47 | -3.03 ± 0.35 |
| CGUCAGCAAUAUUACGAUGA | -0.998 ± 0.11 | 0.0314 ± 0.11 |
| CGUCAGCAAUAUUACGAUUA | -0.469 ± 0.17 | 0.0103 ± 0.13 |
| CGUCAGCAAUAUUACGAUUU | -1.01 ± 0.06 | -1.11 ± 0.061 |
| CGUCAGCAAUAUUACGCAUU | -3.62 ± 0.16 | -2.31 ± 0.16 |
| CGUCAGCAAUAUUACGCCAC |  | -1.01 ± 0.45 |
| CGUCAGCAAUAUUACGCCGC | -2.76 ± 0.32 | -1.05 ± 0.27 |
| CGUCAGCAAUAUUACGCUAC | -3.74 ± 0.43 | -0.956 ± 0.23 |
| CGUCAGCAAUAUUACGCUCA | -1.1 ± 0.15 | 0.0237 ± 0.12 |
| CGUCAGCAAUAUUACGCUUC | -3.46 ± 0.36 | -3.11 ± 0.31 |
| CGUCAGCAAUAUUACGCUUG | -1.03 ± 0.098 | 0.41 ± 0.12 |
| CGUCAGCAAUAUUACGGAUC | -1.12 ± 0.051 | -0.0121 ± 0.069 |
| CGUCAGCAAUAUUACGGCGA | -1.88 ± 0.17 | -1.57 ± 0.21 |
| CGUCAGCAAUAUUACGGCGG | -1.01 ± 0.082 | 0.0141 ± 0.11 |
| CGUCAGCAAUAUUACGGCUC | -1.43 ± 0.081 | 0.225 ± 0.088 |

| Sequence | self-splicing fitness (ln) (30 °C) | self-splicing fitness (ln) (37 °C) |
| --- | --- | --- |
| CGUCAGCAAUAUUACGGGCG | -3.15 ± 0.16 | -2.8 ± 0.21 |
| CGUCAGCAAUAUUACGGGUA | -1.81 ± 0.14 | -1.06 ± 0.1 |
| CGUCAGCAAUAUUACGGUAG | -0.184 ± 0.059 | 0.0634 ± 0.064 |
| CGUCAGCAAUAUUACGGUUA | -2.25 ± 0.12 | -0.874 ± 0.091 |
| CGUCAGCAAUAUUACGUGAA | -2.11 ± 0.087 | -0.281 ± 0.092 |
| CGUCAGCAAUAUUACGUUAU | -2.95 ± 0.14 | -2.83 ± 0.17 |
| CGUGAGCAAUAUUACGAAUG | -1.41 ± 0.16 | -0.913 ± 0.13 |
| CGUGAGCAAUAUUACGACUU | -2.96 ± 0.16 | -1.71 ± 0.19 |
| CGUGAGCAAUAUUACGAGAC |  | -0.958 ± 0.35 |
| CGUGAGCAAUAUUACGAGAG | -2.29 ± 0.25 | -2.64 ± 0.36 |
| CGUGAGCAAUAUUACGAGCA | -1.58 ± 0.085 | -0.55 ± 0.11 |
| CGUGAGCAAUAUUACGAGGU | -0.426 ± 0.29 | -1.35 ± 0.31 |
| CGUGAGCAAUAUUACGAUUC | -3.25 ± 0.23 | -2.58 ± 0.44 |
| CGUGAGCAAUAUUACGAUUG | -0.949 ± 0.09 | -0.662 ± 0.13 |
| CGUGAGCAAUAUUACGCAAC | -2.77 ± 0.36 | -2.18 ± 0.33 |
| CGUGAGCAAUAUUACGCCCU | -3.26 ± 0.23 | -1.98 ± 0.24 |
| CGUGAGCAAUAUUACGCCUC | -2.12 ± 0.31 | -1.07 ± 0.4 |
| CGUGAGCAAUAUUACGCCUG | -1.76 ± 0.26 | -0.852 ± 0.36 |
| CGUGAGCAAUAUUACGCUAA |  | -1.26 ± 0.48 |
| CGUGAGCAAUAUUACGGAGU | -3.12 ± 0.23 | -1.14 ± 0.4 |
| CGUGAGCAAUAUUACGGCAU | -2.59 ± 0.11 | -2.28 ± 0.16 |
| CGUGAGCAAUAUUACGGCUC | -3.79 ± 0.42 | -1.23 ± 0.27 |
| CGUGAGCAAUAUUACGGGGC | -3.54 ± 0.28 | -2.03 ± 0.2 |
| CGUGAGCAAUAUUACGGUCA | -3.84 ± 0.25 | -2.12 ± 0.16 |
| CGUGAGCAAUAUUACGGUUU | -3.81 ± 0.18 | -3.28 ± 0.22 |
| CGUGAGCAAUAUUACGUAGC | -1.15 ± 0.34 | -1.28 ± 0.35 |

| Sequence | self-splicing fitness (ln) (30 °C) | self-splicing fitness (ln) (37 °C) |
| --- | --- | --- |
| CGUGAGCAAUAUUACGUUAU | -4.44 ± 0.36 | -2.38 ± 0.18 |
| CGUUAGCAAUAUUACGAAGU | -2.41 ± 0.34 | -1.29 ± 0.3 |
| CGUUAGCAAUAUUACGAGCU | -1.25 ± 0.064 | -0.739 ± 0.082 |
| CGUUAGCAAUAUUACGAGUG | -1.18 ± 0.078 | 0.184 ± 0.094 |
| CGUUAGCAAUAUUACGAGUU | -2.98 ± 0.36 | -2.27 ± 0.45 |
| CGUUAGCAAUAUUACGAUUC | -3.09 ± 0.19 | -1.68 ± 0.18 |
| CGUUAGCAAUAUUACGAUUU | -2.51 ± 0.27 | -1.66 ± 0.25 |
| CGUUAGCAAUAUUACGCACC | -1.94 ± 0.35 | -1.79 ± 0.48 |
| CGUUAGCAAUAUUACGCACG | -1.99 ± 0.31 |  |
| CGUUAGCAAUAUUACGCCCA | -1.43 ± 0.16 | 0.14 ± 0.18 |
| CGUUAGCAAUAUUACGCCGU |  | -0.993 ± 0.44 |
| CGUUAGCAAUAUUACGCGAU | -2.89 ± 0.16 | -3.12 ± 0.32 |
| CGUUAGCAAUAUUACGCUAA |  | 0.0733 ± 0.29 |
| CGUUAGCAAUAUUACGGAAA | -1.93 ± 0.38 | -2.11 ± 0.31 |
| CGUUAGCAAUAUUACGGACU | -0.292 ± 0.08 | 0.16 ± 0.11 |
| CGUUAGCAAUAUUACGGCAU | -2.01 ± 0.11 | -1.13 ± 0.12 |
| CGUUAGCAAUAUUACGGCUC | -1.75 ± 0.33 | 0.277 ± 0.22 |
| CGUUAGCAAUAUUACGGGAA | -2.14 ± 0.17 | -2.36 ± 0.28 |
| CGUUAGCAAUAUUACGUGCA | -1.38 ± 0.11 | -0.0413 ± 0.11 |
| CGUUAGCAAUAUUACGUGGG | -1.39 ± 0.12 | -1.79 ± 0.16 |
| CGUUAGCAAUAUUACGUUAA | -3.44 ± 0.23 | -3.24 ± 0.28 |
| CGUUAGCAAUAUUACGUUAU | -2.76 ± 0.34 | -2.18 ± 0.37 |
| CUAAAGCAAUAUUACGAAAU | -3.55 ± 0.28 | -2.01 ± 0.46 |
| CUAAAGCAAUAUUACGAGCG | 0.136 ± 0.057 | 0.289 ± 0.073 |
| CUAAAGCAAUAUUACGAGCU | -4.12 ± 0.26 | -2.82 ± 0.38 |
| CUAAAGCAAUAUUACGAUUG | -0.545 ± 0.053 | -0.596 ± 0.06 |

Reference: the supplement of paper PMC7877785
